IntAct's records for PubMed 18202720

B1: Type-1 angiotensin II receptor A (Rattus norvegicus (Rat)), P25095 (parent)
chain: MALNSSAEDGIKRIQDDCPKAGRHSYIFVMIPTLYSIIFVVGIFGNSLVVIVIYFYMKLKTVASVFLLNLALADLCFLLTLPLWAVYTAMEYRWPFGNHLCKIASASVSFNLYASVFLLTCLSIDRYLAIVHPMKSRLRRTMLVAKVTCIIIWLMAGLASLPAVIHRNVYFIENTNITVCAFHYESRNSTLPIGLGLTKNILGFLFPFLIILTSYTLIWKALKKAYEIQKNKPRNDDIFRIIMAIVLFFFFSWVPHQIFTFLDVLIQLGVIHDCKISDIVDTAMPITICIAYFNNCLNPLFYGFLGKKFKKYFLQLLKYIPPKAKSHSSLSTKMSTLSYRPSDNMSSSAKKPASCFEVE

Variants of: B1
Settings: with angt_human AGT

Variant	effect of a mutation on the interaction
MALNSSAEDGIKRIQDDCPKAGRHSYIFVMIPTLYSIIFVVGIFGNSLVVIVIYFYMKLKTVASVFLLNLALADLCFLLTLPLWAVYTAMEYRWPFGNHLCKIASASVSFNLYASVFLLTCLSIDRYLAIVHPMKSRLRRTMLVAKVTCIIIWLMAGLASLPAVIHRNVYFIENTNITVCAFHYESRNSTLPIGLGLTKNILGFLFPFLIILTSYTLIWKALKKAYEIQKNKPRNDDIFRIIMAIVLFFFFSWVPHQIFTFLDVLIQLGVIHDCKISDIVDTAMPITICIAYFNCCLNPLFYGFLGKKFKKYFLQLLKYIPPKAKSHSSLSTKMSTLSYRPSDNMSSSAKKPASCFEVE [N295C]	decreasing interaction
MALNSSAEDGIKRIQDDCPKAGRHSYIFVMIPTLYSIIFVVGIFGNSLVVIVIYFYMKLKTVASVFLLNLALADLAFLLTLPLWAVYTAMEYRWPFGNHLCKIASASVSFNLYASVFLLTCLSIDRYLAIVHPMKSRLRRTMLVAKVTCIIIWLMAGLASLPAVIHRNVYFIENTNITVCAFHYESRNSTLPIGLGLTKNILGFLFPFLIILTSYTLIWKALKKAYEIQKNKPRNDDIFRIIMAIVLFFFFSWVPHQIFTFLDVLIQLGVIHDCKISDIVDTAMPITIAIAYFNNCLNPLFYGFLGKKFKKYFLQLLKYIPPKAKSHSSLSTKMSTLSYRPSDNMSSSAKKPASCFEVE [C76A;C289A]	decreasing interaction

Variants of: B1
Settings: with angt_human AGT
Remark: another data set of the same source

Variant	effect of a mutation on the interaction
MALNSSAEDGIKRIQDDCPKAGRHSYIFVMIPTLYSIIFVVGIFGNSLVVIVIYFYMKLKTVASVFLLNLALADLAFLLTLPLWAVYTAMEYRWPFGNHLCKIASASVSFNLYASVFLLTCLSIDRYLAIVHPMKSRLRRTMLVAKVTCIIIWLMAGLASLPAVIHRNVYFIENTNITVCAFHYESRNSTLPIGLGLTKNILGFLFPFLIILTSYTLIWKALKKAYEIQKNKPRNDDIFRIIMAIVLFFFFSWVPHQIFTFLDVLIQLGVIHDCKISDIVDTAMPITICIAYFNNALNPLFYGFLGKKFKKYFLQLLKYIPPKAKSHSSLSTKMSTLSYRPSDNMSSSAKKPASCFEVE [C76A;C296A]	decreasing interaction

Variants of: B1
Settings: with angt_human AGT
Remark: another data set of the same source

Variant	effect of a mutation on the interaction
MALNSSAEDGIKRIQDDCPKAGRHSYIFVMIPTLYSIIFVVGIFGNSLVVIVIYFYMKLKTVASVFLLNLALADLCFLLTLPLWAVYTAMEYRWPFGNHLCKIASASVSFNLYASVFLLTCLSIDRYLAIVHPMKSRLRRTMLVAKVTAIIIWLMAGLASLPAVIHRNVYFIENTNITVCAFHYESRNSTLPIGLGLTKNILGFLFPFLIILTSYTLIWKALKKAYEIQKNKPRNDDIFRIIMAIVLFFFFSWVPHQIFTFLDVLIQLGVIHDCKISDIVDTAMPITICIAYFNNCLNPLFYGFLGKKFKKYFLQLLKYIPPKAKSHSSLSTKMSTLSYRPSDNMSSSAKKPASCFEVE [C149A]	decreasing interaction

Variants of: B1
Settings: with angt_human AGT
Remark: another data set of the same source

Variant	effect of a mutation on the interaction
MALNSSAEDGIKRIQDDCPKAGRHSYIFVMIPTLYSIIFVVGIFGNSLVVIVIYFYMKLKTVASVFLLNLALADLAFLLTLPLWAVYTAMEYRWPFGNHLCKIASASVSFNLYASVFLLTCLSIDRYLAIVHPMKSRLRRTMLVAKVTCIIIWLMAGLASLPAVIHRNVYFIENTNITVCAFHYESRNSTLPIGLGLTKNILGFLFPFLIILTSYTLIWKALKKAYEIQKNKPRNDDIFRIIMAIVLFFFFSWVPHQIFTFLDVLIQLGVIHDCKISDIVDTAMPITIAIAYFNNALNPLFYGFLGKKFKKYFLQLLKYIPPKAKSHSSLSTKMSTLSYRPSDNMSSSAKKPASCFEVE [C76A;C289A;C296A]	decreasing interaction

Variants of: B1
Settings: with angt_human AGT
Remark: another data set of the same source

Variant	effect of a mutation on the interaction
MALNSSAEDGIKRIQDDCPKAGRHSYIFVMIPTLYSIIFVVGIFGNSLVVIVIYFYMKLKTVASVFLLNLALADLCFLLTLPLWAVYTAMEYRWPFGNHLCKIASASVSFNLYASVFLLTCLSIDRYLAIVHPMKSRLRRTMLVAKVTCIIIWLMAGLASLPAVIHRNVYFIENTNITVCAFHYESRNSTLPIGLGLTKNILGFLFPFLIILTSYTLIWKALKKAYEIQKNKPRNDDIFRIIMAIVLFFFFSWVPHQIFTFLDVLIQLGVIHDCKISDIVDTAMPITICIAYFCNCLNPLFYGFLGKKFKKYFLQLLKYIPPKAKSHSSLSTKMSTLSYRPSDNMSSSAKKPASCFEVE [N294C]	increasing interaction
MALNSSAEDGIKRIQDDCPKAGRHSYIFVMIPTLYSIIFVVGIFGNSLVVIVIYFYMKLKTVASVFLLNLALADLAFLLTLPLWAVYTAMEYRWPFGNHLCKIASASVSFNLYASVFLLTCLSIDRYLAIVHPMKSRLRRTMLVAKVTCIIIWLMAGLASLPAVIHRNVYFIENTNITVCAFHYESRNSTLPIGLGLTKNILGFLFPFLIILTSYTLIWKALKKAYEIQKNKPRNDDIFRIIMAIVLFFFFSWVPHQIFTFLDVLIQLGVIHDCKISDIVDTAMPITIAIAYFNNCLNPLFYGFLGKKFKKYFLQLLKYIPPKAKSHSSLSTKMSTLSYRPSDNMSSSAKKPASCFEVE [C76A;C289A]	increasing interaction

Variants of: B1
Settings: with angt_human AGT
Remark: another data set of the same source

Variant	effect of a mutation on the interaction
MALNSSAEDGIKRIQDDCPKAGRHSYIFVMIPTLYSIIFVVGIFGNSLVVIVIYFYMKLKTVASVFLLNLALADLAFLLTLPLWAVYTAMEYRWPFGNHLCKIASASVSFNLYASVFLLTCLSIDRYLAIVHPMKSRLRRTMLVAKVTCIIIWLMAGLASLPAVIHRNVYFIENTNITVCAFHYESRNSTLPIGLGLTKNILGFLFPFLIILTSYTLIWKALKKAYEIQKNKPRNDDIFRIIMAIVLFFFFSWVPHQIFTFLDVLIQLGVIHDCKISDIVDTAMPITIAIAYFNNCLNPLFYGFLGKKFKKYFLQLLKYIPPKAKSHSSLSTKMSTLSYRPSDNMSSSAKKPASCFEVE [C76A;C289A]	decreasing interaction
